Like-named read-outs stand apart in the source and are kept apart here.
How the values were obtained:
[1] = molecular target: CD81 on 293-T cells (human (endogenous in HEK 293-T)) (UniProt P60033); test: flow cytometry on cells
[2] = molecular target: CD81 on 293-T cells (human (endogenous in HEK 293-T)) (UniProt P60033); test: flow cytometry on cells; remark: listed apart in the source

Chain of UniProt P60033 (P60033 whole entry): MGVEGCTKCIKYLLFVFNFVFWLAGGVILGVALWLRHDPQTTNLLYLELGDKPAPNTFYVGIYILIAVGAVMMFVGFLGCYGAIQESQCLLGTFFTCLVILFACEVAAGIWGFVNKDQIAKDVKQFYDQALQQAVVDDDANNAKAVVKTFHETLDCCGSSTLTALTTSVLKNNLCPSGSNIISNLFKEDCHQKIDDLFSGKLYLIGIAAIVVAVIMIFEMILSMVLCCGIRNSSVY

Q: What does the source list for “HCV E2 (strain not told for the experiment on 293-T cells) (natural protein)”?
A: Mean FI [1]: 62; Mean FI [2]: 79

Source: article PMC3549482
